# Data: IntAct's records for PubMed 18449195
# B1: SOSS complex subunit B1 (Homo sapiens), Q9BQ15 (parent)
# chain: MTTETFVKDIKPGLKNLNLIFIVLETGRVTKTKDGHEVRTCKVADKTGSINISVWDDVGNLIQPGDIIRLTKGYASVFKGCLTLYTGRGGDLQKIGEFCMVYSEVPNFSEPNPEYSTQQAPNKAVQNDSNPSASQPTTGPSAASPASENQNGNGLSAPPGPGGGPHPPHTPSHPPSTRITRSQPNHTPAGPPGPSSNPVSNGKETRRSSKR
# Variants of: B1
# Conditions: with atm_human ATM
row,Variant,effect of a mutation on the interaction
1,T117A,disrupting interaction
